# Laboratory results published in patent US20100120665A1.
# Tests used:
# Test in all cases: cell-based or functional assay
# [1] = biological target: human complement factor D (human) (UniProt P00746)
# [2] = biological target: mouse factor B (endogenous, in diluted whole mouse serum) (mouse) (UniProt P04186)
# [3] = biological target: purified human factor B protein (Quidel, Catalog# A408) (human) (UniProt P00751)
# UniProt P00751, sequence (P00751 26-764): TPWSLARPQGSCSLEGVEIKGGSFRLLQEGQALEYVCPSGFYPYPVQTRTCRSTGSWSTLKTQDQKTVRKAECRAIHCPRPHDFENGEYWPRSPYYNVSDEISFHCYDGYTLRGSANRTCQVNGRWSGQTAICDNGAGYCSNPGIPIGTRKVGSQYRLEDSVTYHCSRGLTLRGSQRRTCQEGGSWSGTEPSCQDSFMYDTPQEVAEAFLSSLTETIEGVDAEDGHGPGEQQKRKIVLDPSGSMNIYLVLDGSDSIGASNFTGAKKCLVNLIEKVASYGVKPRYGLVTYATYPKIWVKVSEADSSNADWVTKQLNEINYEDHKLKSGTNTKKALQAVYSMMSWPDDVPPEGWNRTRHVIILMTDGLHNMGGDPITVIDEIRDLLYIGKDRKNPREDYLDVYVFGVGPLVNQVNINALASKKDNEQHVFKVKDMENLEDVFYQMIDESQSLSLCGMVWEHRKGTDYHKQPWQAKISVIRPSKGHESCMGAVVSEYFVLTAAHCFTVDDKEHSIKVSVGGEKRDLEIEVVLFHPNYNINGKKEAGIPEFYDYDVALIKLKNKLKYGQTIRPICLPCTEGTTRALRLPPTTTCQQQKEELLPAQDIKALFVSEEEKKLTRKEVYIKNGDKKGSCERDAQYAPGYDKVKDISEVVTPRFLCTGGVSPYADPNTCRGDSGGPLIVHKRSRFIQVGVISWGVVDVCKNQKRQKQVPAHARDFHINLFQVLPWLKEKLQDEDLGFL
# UniProt P00746, sequence (P00746 26-253 limits assumed): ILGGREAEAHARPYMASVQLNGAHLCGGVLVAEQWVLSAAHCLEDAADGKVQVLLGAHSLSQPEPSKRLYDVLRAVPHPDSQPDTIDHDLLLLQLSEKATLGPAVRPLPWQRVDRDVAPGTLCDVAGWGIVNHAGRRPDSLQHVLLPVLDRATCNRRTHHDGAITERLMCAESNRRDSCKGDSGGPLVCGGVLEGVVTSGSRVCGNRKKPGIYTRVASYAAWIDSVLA
# UniProt P04186, sequence (P04186 23-761): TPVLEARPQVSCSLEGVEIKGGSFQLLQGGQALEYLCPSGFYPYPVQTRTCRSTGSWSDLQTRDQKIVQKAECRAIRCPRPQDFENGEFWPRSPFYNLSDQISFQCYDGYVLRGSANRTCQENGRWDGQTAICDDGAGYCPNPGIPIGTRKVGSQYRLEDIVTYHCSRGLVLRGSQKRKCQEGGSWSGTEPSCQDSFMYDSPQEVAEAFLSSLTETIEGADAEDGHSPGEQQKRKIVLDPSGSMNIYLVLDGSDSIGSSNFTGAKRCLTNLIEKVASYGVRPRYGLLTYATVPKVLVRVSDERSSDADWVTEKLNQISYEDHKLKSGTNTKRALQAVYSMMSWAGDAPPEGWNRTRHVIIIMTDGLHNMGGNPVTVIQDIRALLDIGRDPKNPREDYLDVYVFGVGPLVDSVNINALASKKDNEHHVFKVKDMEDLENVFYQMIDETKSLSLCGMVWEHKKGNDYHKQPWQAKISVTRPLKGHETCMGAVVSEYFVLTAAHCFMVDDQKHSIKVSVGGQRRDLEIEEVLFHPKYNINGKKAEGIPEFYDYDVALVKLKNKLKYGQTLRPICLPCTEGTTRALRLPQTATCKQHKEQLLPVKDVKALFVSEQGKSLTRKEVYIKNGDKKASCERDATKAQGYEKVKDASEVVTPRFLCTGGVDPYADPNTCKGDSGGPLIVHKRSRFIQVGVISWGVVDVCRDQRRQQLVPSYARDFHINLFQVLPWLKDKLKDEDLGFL
substance,measurement,setting,value
"isotype matched mouse control IgG (eBioscience, Catalog# 14-4732) (antibody)",hemolysis OD 405 nm; Control IgG 5 ng + Purified hfB protein 0.5 ug,[1],0.428 OD 405 nm
same,hemolysis OD 405 nm; Control IgG 10 ng + Purified hfB protein 0.5 ug,[1],0.361 OD 405 nm
same,hemolysis OD 405 nm; Control IgG 20 ng + Purified hfB protein 0.5 ug,[1],0.441 OD 405 nm
same,hemolysis OD 405 nm; Control IgG 30 ng + Purified hfB protein 0.5 ug,[1],0.392 OD 405 nm
same,hemolysis OD 405 nm; Control IgG 40 ng + Purified hfB protein 0.5 ug,[1],0.426 OD 405 nm
same,hemolysis OD 405 nm; Control IgG 50 ng + Purified hfB protein 0.5 ug,[1],0.43 OD 405 nm
same,hemolysis OD 405 nm; Control IgG 60 ng + Purified hfB protein 0.5 ug,[1],0.416 OD 405 nm
same,hemolysis OD 405 nm; Control IgG 70 ng + Purified hfB protein 0.5 ug,[1],0.395 OD 405 nm
same,hemolysis OD 405 nm; Control IgG 80 ng + Purified hfB protein 0.5 ug,[1],0.387 OD 405 nm
same,hemolysis OD 405 nm; Control IgG 90 ng + Purified hfB protein 0.5 ug,[1],0.347 OD 405 nm
same,hemolysis OD 405 nm; Control IgG 100 ng + Purified hfB protein 0.5 ug,[1],0.397 OD 405 nm
same,hemolysis OD 405 nm; Control IgG 150 ng + Purified hfB protein 0.5 ug,[1],0.426 OD 405 nm
same,hemolysis OD 405 nm; Control IgG 200 ng + Purified hfB protein 0.5 ug,[1],0.347 OD 405 nm
same,hemolysis OD 405 nm; Control IgG 400 ng + Purified hfB protein 0.5 ug,[1],0.506 OD 405 nm
same,hemolysis OD 405 nm; Control IgG 800 ng + Purified hfB protein 0.5 ug,[1],0.538 OD 405 nm
same,hemolysis OD 405 nm; Control IgG 1600 ng + Purified hfB protein 0.5 ug,[1],0.618 OD 405 nm
same,hemolysis OD 405 nm; Control IgG 2400 ng + Purified hfB protein 0.5 ug,[1],0.588 OD 405 nm
"monoclonal anti-human factor D antibody (Affinity Bioreagents, Catalog# GAU008-01-02)",hemolysis OD 405 nm; Anti-hfD mAb 5 ng + Purified hfB protein 0.5 ug,[1],0.373 OD 405 nm
same,hemolysis OD 405 nm; Anti-hfD mAb 10 ng + Purified hfB protein 0.5 ug,[1],0.432 OD 405 nm
same,hemolysis OD 405 nm; Anti-hfD mAb 20 ng + Purified hfB protein 0.5 ug,[1],0.369 OD 405 nm
same,hemolysis OD 405 nm; Anti-hfD mAb 30 ng + Purified hfB protein 0.5 ug,[1],0.235 OD 405 nm
same,hemolysis OD 405 nm; Anti-hfD mAb 40 ng + Purified hfB protein 0.5 ug,[1],0.227 OD 405 nm
same,hemolysis OD 405 nm; Anti-hfD mAb 50 ng + Purified hfB protein 0.5 ug,[1],0.165 OD 405 nm
same,hemolysis OD 405 nm; Anti-hfD mAb 60 ng + Purified hfB protein 0.5 ug,[1],0.126 OD 405 nm
same,hemolysis OD 405 nm; Anti-hfD mAb 70 ng + Purified hfB protein 0.5 ug,[1],0.103 OD 405 nm
same,hemolysis OD 405 nm; Anti-hfD mAb 80 ng + Purified hfB protein 0.5 ug,[1],0.078 OD 405 nm
same,hemolysis OD 405 nm; Anti-hfD mAb 90 ng + Purified hfB protein 0.5 ug,[1],0.058 OD 405 nm
same,hemolysis OD 405 nm; Anti-hfD mAb 100 ng + Purified hfB protein 0.5 ug,[1],0.061 OD 405 nm
same,hemolysis OD 405 nm; Anti-hfD mAb 150 ng + Purified hfB protein 0.5 ug,[1],0.035 OD 405 nm
same,hemolysis OD 405 nm; Anti-hfD mAb 200 ng + Purified hfB protein 0.5 ug,[1],0.029 OD 405 nm
same,hemolysis OD 405 nm; Anti-hfD mAb 400 ng + Purified hfB protein 0.5 ug,[1],0.022 OD 405 nm
same,hemolysis OD 405 nm; Anti-hfD mAb 800 ng + Purified hfB protein 0.5 ug,[1],0.015 OD 405 nm
same,hemolysis OD 405 nm; Anti-hfD mAb 1600 ng + Purified hfB protein 0.5 ug,[1],0.014 OD 405 nm
same,hemolysis OD 405 nm; Anti-hfD mAb 2400 ng + Purified hfB protein 0.5 ug,[1],0.049 OD 405 nm
"mouse monoclonal antibody against human factor B (Quidel, Catalog# A227)",hemolysis OD 405 nm; Anti hfB mAb 0.4 ug + Mouse serum 50 ul (1:6 Diluted),[2],0.074 OD 405 nm
same,hemolysis OD 405 nm; Anti hfB mAb 0.4 ug + Purified hfB Protein 0.5 ug,[3],0.051 OD 405 nm
same,hemolysis OD 405 nm; Anti hfB mAb 0.8 ug + Purified hfB Protein 0.5 ug,[3],0 OD 405 nm
